Laboratory results reported in the DeepSol protein solubility set.

Test: soluble on expression in E. coli; label from the status in PepcDB or PDB records

Sequence | soluble on expression in E. coli
MSDLETVAKFLAESVIASTAKTSERNLRQLETQDGFGLTLLHVIASTNLPLSTRLAGALFFKNFIKRKWVDENGNHLLPANNVELIKKEIVPLMISLPNNLQVQIGEAISSIADSDFPDRWPTLLSDLASRLSNDDMVTNKGVLTVAHSIFKRWRPLFRSDELFLEIKLVLDVFTAPFLNLLKTVDEQITANENNKASLNILFDVLLVLIKLYYDFNCQDIPEFFEDNIQVGMGIFHKYLSYSNPLLEDPDETEHASVLIKVKSSIQELVQLYTTRYEDVFGPMINEFIQITWNLLTSISNQPKYDILVSKSLSFLTAVTRIPKYFEIFNNESAMNNITEQIILPNVTLREEDVELFEDDPIEYIRRDLEGSDTDTRRRACTDFLKELKEKNEVLVTNIFLAHMKGFVDQYMSDPSKNWKFKDLYIYLFTALAINGNITNAGVSSTNNLLNVVDFFTKEIAPDLTSNNIPHIILRVDAIKYIYTFRNQLTKAQLIELMPILATFLQTDEYVVYTYAAITIEKILTIRESNTSPAFIFHKEDISNSTEILLKNLIALILKHGSSPEKLAENEFLMRSIFRVLQTSEDSIQPLFPQLLAQFIEIVTIMAKNPSNPRFTHYTFESIGAILNYTQRQNLPLLVDSMMPTFLTVFSEDIQEFIPYVFQIIAFVVEQSATIPESIKPLAQPLLAPNVWELKGNIPAVTRLLKSFIKTDSSIFPDLVPVLGIFQRLIASKAYEVHGFDLLEHIMLLIDMNRLRPYIKQIAVLLLQRLQNSKTERYVKKLTVFFGLISNKLGSDFLIHFIDEVQDGLFQQIWGNFIITTLPTIGNLLDRKIALIGVLNMVINGQFFQSKYPTLISSTMNSIIETASSQSIANLKNDYVDLDNLEEISTFGSHFSKLVSISEKPFDPLPEIDVNNGVRLYVAEALNKYNAISGNTFLNTILPQLTQENQVKLNQLLVGNRSHHHHHH | soluble
MSDLKYTVTADVLNVRSGAGTGHSVISKVKQGQVLQVIGQENGWFKVTVNGQTGYVSGDFVTTGGKTGTTVQQGTGTYTVNVSSLNVRTGPSTSHTVLGSVNKGKTVQVVSEVQDWFKINFNGGTGYVSKDFVTKGGSALEHHHHHH | soluble
MSDLVSYHLDDGVATLTLNNGKVNAISPDVIIAFNAALDQAEKDRAIVIVTGQPGILSGGYDLKVMTSSAEAAINLVAQGSTLARRMLSHPFPIIVACPGHAVAKGAFLLLSADYRIGVAGPFSIGLNEVQIGMTMHHAGIELARDRLRKSAFNRSVINAEMFDPEGAMAAGFLDKVVSVEELQGAALAVAAQLKKI | not soluble
MSDPRAPRLCVLIDADNVPANYAEAIFEEIAALGEASVRRIYGDWSAMRLNAWAKKVAALGLVADQQFSNTKGKNASDIGLVISAMDFLHSGLFDGFVLVSSDSDFTRLAARIREQGLDVYGIGEKKTPEAFRMACKRFIYVENLGSDEPPAREPRPADEPQQPPAQRGREKEEPMKAIPLIAAAMRAIDPEGEWYSLGQIGQFITQANPDFDTRTYGSAKLSDLIKKISRFEVKPGPGGQLLARDIALEHHHHHH | not soluble
MSDQIADARLVPLGAILTRMSTVVDMPETRGHLISAITTASDPGEILYLSSRADFSEGGSIRGGVPIIAPWFAKNLGHDELQHGWARRVEWETIPTNGGIDARTSHDDWDLRLGTQVLPHGFAMMLKARNASPLRRDFQSAFHPYFRVADVRTTTVTVGDQEFRFDGTAVDQAVPLPEWTPLVIKDSQRTITVTYQGADHAVVWNPGSELAAQMTDVGEGEWTEFVCVEPALLGDHAQGISVPPWDWVEIGMTVKVTPAQ | not soluble
MSDQLEASIKNILEQKTLKWIFVGGKGGVGKTTCSCSLAAQLSKVRERVLLISTDPAHNISDAFSQKFTKTPTLVEGFKNLFAMEIDSNPNGEGVEMGNIEEMLQNAAQNEGGSGGFSMGKDFLQSFAGGLPGIDEAMSFGEMIKLIDSLDFDVVVFDTAPTGHTLRLLQFPTLLEKVFTKILSLQGMFGPMMNQFGGMFGMGGGSMNEMIEKMTTTLESVKKMNAQFKDPNCTTFVCVCIAEFLSLYETERLIQELSKQGIDTHNIIVNQLLFPDTDANGTVSCRKCASRQAIQSKYLTDIDELYEDFHVVKLPLLEAEVRGGPAILQFSERMVDPEANKN | not soluble
MSDSASGYEYVYYDRQVGAVQKSPNLMNDPKGALFYTLDSVFGDPGDTTGWILYNDEMPADANRSNNATLGHTKGVIAFDIASSSALWLLHSWPKYASPSVPGVPTPLYGQTFLCLSLDLATAGKLAAQMALHQQPQVYLPRTGGLDHTSPLYALTQPLNASAPGDSDSLDFKTRGGVPFKVIAKNRKWGKDFWNDLVGPTLKADMYVETWIRGKIPPVLDSDGVHKTYDIKFIDLRKLGAPWAWPETQDHAKWGITTTDNWVCVGDINRMVTQEKRGGGTIAFQDPKLWKALCETDLIIPPPGKTDAQARAMIRKTHEPAELEHHHHHH | not soluble
MSDSKCDSQFYSVQVADSTFTVLKRYQQLKPIGSGAQGIVCAAFDTVLGINVAVKKLSRPFQNQTHAKRAYRELVLLKCVNHKNIISLLNVFTPQKTLEEFQDVYLVMELMDANLCQVIHMELDHERMSYLLYQMLCGIKHLHSAGIIHRDLKPSNIVVKSDCTLKILDFGLARTACTNFMMTPYVVTRYYRAPEVILGMGYKENVDIWSVGCIMGELVKGCVIFQGTDHIDQWNKVIEQLGTPSAEFMKKLQPTVRNYVENRPKYPGIKFEELFPDWIFPSESERDKIKTSQARDLLSKMLVIDPDKRISVDEALRHPYITVWYDPAEAEAPPPQIYDAQLEEREHAIEEWKELIYKEVMDWEERSKNGVVKDQPSDAAVSSNATPSQSSSINDISSMSTEQTLASDTDSSLDASTGPLEGCR | soluble
MSDSSHAFSATERAAVYRAIAERRDMRHFSGGSVAPELLARLLEAAHQAPSVGLMQPWRFIRITEPALRRAIHGLVEEERGRTAEALGERSDEFMRLKVEGVLDCAELLVAALMDDRERHVFGRRTLPQMDLASLACAIQNLWLASRAEGLGMGWVSLFDPAALGELLGLPPGSEAVAVLCLGPVAEFYPAPMLALEGWSEPRPLAELVYQNRWGERA | not soluble
MSDTLRPYKNLFPGIGQRVMIDTSSVVIGDVRLADDVGIWPLVVIRGDVNYVAIGARTNIQDGSVLHVTHKSSSNPHGNPLIIGEDVTVGHKVMLHGCTIGNRVLVGMGSIVLDGAIIEDDVMIGAGSLVPQHKRLESGYLYLGSPVKQIRPLSDAERSGLQYSANNYVKWKDDYLSQDNHIQP | not soluble
MSDVARILKEARDQGRLTALDFAKEIFDDFIELHGDRNFRDDGAVIGGIGRLNGQAVTVVGIQKGKNLQDNLNRNFGQPHPEGYRKALRLMKQAEKFGRSVVTFINTAGAYPGVGAEERGQGEAIARNLMEMSDLKVPIIAIIIGEGGSGGALALAVADKVWMLENTIYSILSPEGFATILWKDGSRSEEAAELMKITSGELLNMGIVDKVIPERGYFTSEIIEAIKTAIVDELAELSQLSTEDLLEARYQRFRKY | not soluble
MSEAEAKLWQHLRAGRLNGYKFRRQQPMGNYIVDFMCVTPKLIVEADGGQHAEQAVYDHARTVYLNSLGFTVLRFWNHEILQQTNDVLAEILRVLQELEKQ | soluble
MSEASRDDYKIQSFDAQTQQLLKTALKDPGAVDLERVANVIVDHSLQDCVFSKEAGRMCYAIIQAESKQAGQSVFRRGLLNRLQKEYDAREQLRACSLQGWVCYVTFICNIFDYLRVNNMPMMALVNPVYDCLFQLAQPESLSREEEVDCLVLQLHRVGEQLEKMNGQRMDELFILIRDGFLLPTDLSSLARLLLLEMIEFRAAGWKTTPAAHKYYYSEVSD | not soluble
MSEFSQTVPELVAWARKNDFSISLPVDRLSFLLAVATLNGERLDGEMSEGELVDAFRHVSDAFEQTSETIGVRANNAINDMVRQRLLNRFTSEQAEGNAIYRLTPLGIGITDYYIRQREFSTLRLSMQLSIVAGELKRAADAAEEGGDEFHWHRNVYAPLKYSVAEIFDSIDLTQRLMDEQQQQVKDDIAQLLNKDWRAAISSCELLLSETSGTLRELQDTLEAAGDKLQANLLRIQDATMTHDDLHFVDRLVFDLQSKLDRIISWGQQSIDLWIGYDRHVHKFIRTAIDMDKNRVFAQRLRQSVQTYFDEPWALTYANADRLLDMRDEEMALRDEEVTGELPEDLEYEEFNEIREQLAAIIEEQLAVYKTRQVPLDLGLVVREYLSQYPRARHFDVARIVIDQAVRLGVAQADFTGLPAKWQPINDYGAKVQAHVIDKY | soluble
MSEHVFETEQVYPALGKVEIAPEVIEVIAGIAASEVDGIAQMRGNFAAGVAERFGKKHHGKGVKVDLRDDGVVIDLYCLVQFGASIPNVAKKVQENVRQALWNMTGLEASEVNVHIVGIQFEGGKQEQGVVEQ | not soluble
MSEIEELVCIEASVTRKSTSNTVEIRESRRNKVTLGSSDSPAFPTPHLFLKNIVSFDEQSMYNLLYPRLQDPNLCSILSFKIAFEAKRVPGPLYISYDVTLTPQIFEEPDMETCGLCLLEEQHLFDMPNCAHVFHGDCIDKWLSTSNNCPLCGVEIMDDDE | soluble
MSEKMVAIMKTKPGYGAELVEVDVPKPGPGEVLIKVLATSICGTDLHIYEWNEWAQSRIKPPQIMGHEVAGEVVEIGPGVEGIEVGDYVSVETHIVCGKCYACRRGQYHVCQNTKIFGVDTDGVFAEYAVVPAQNIWKNPKSIPPEYATLQEPLGNAVDTVLAGPISGKSVLITGAGPLGLLGIAVAKASGAYPVIVSEPSDFRRELAKKVGADYVINPFEEDVVKEVMDITDGNGVDVFLEFSGAPKALEQGLQAVTPAGRVSLLGLYPGKVTIDFNNLIIFKALTIYGITGRHLWETWYTVSRLLQSGKLNLDPIITHKYKGFDKYEEAFELMRAGKTGKVVFMLK | soluble
MSEKVVFSQLSRKFIDENDATPAEAQQVVYYSLAIGHHLGVIDCLEAALTCPWDEYLAWIATLEAGSEARRKMEGVPKYGEIVIDINHVPMLANAFDKARAAQTSQQKEWSTMLLSMLHDIHQENAIYLMVRRLRD | not soluble
MSELLSSVSQQLLAPGGLELDSLPGILHELNGPGIDAADLYFQSQVSESWMLEDGIVKEGSFNLDQGVGVRAQSGEKTGFAYSNAITAEALKQAAVAARSISRAGQNGSVQAFKAVVPARLYAGENPLDVLSRAEKVELLKQIDAATRALDPRIQQVTVSMAGVWEQILVAASDGSLAADIRPLVRFNVSVIVEQNGRRERGGHGGGGRTDYRYFLQEDRAMGYAREALRQALVNLEAIPAPAGTLPVVMGAGWSGVLLHEAVGHGLEGDFNRKGSSAYSGRVGEKVASSLCTIVDDGTLAGRRGSLSVDDEGTPSNCNVLIENGVLKGYMQDKLNARLMGVARTGNGRRESYAHLPMPRMTNTYMLAGESDPQEIIASVEKGIYCANLGGGQVDITSGKFVFSTSEAYLIENGRITTPVKGATLIGNGPEAMSRVSMVGNDLALDSGVGTCGKDGQSVPVGVGQPTLKIDAITVGGTGA | not soluble
MSENSENAPEKVEFTPIGYVENDYFKPEYKEEVYEKVSKIVLREDLVDGLYRVEELEKLYILFYFSKSEGYKLIHRRRYDGEMSGVFASRSPYRPNGIGLTLVELLKVEGNVLYVKGLDAINGTPVLDIKPYMKDLEEKEKENTKLEHHHHHH | soluble
MSEPISPRTPQQALAALLARYAPKHLLLVGASRLPAVEAFIHNHPQCQLAHSPAAALPAELAGQRFDLALFVDCLEHLPQRTGLQLLAGVRNLNASRVAVLVDLEASDWQETDFFALAMQNSERFQREGQTLTLYTYDLYEYKQVPDWLNAKFWANPENFGKYWW | not soluble
MSERLFVLSQHILPKLALTRLAGRFADWKGGGITTAAIRRFIARYNVDMGEAADSDPAAYATFNDFFTRALKPGVRPVADARLVCPVDGAVSQLGAIDSGRIFQAKGRDYSATALLAGDADLAARFADGHFATIYLSPRDYHRIHMPCAGRLLEMTYVPGDLYSVNPATARGVDRLFARNERVVCVFEDEQSQPFVMVLVGATIVGSMATVWHGVVNPPRRPAVEKWDYRGQDIRLAKGEEMGRFLLGSTVVLLYPAGPLKFNPQWQAASPVRMGEAMASLEHHHHHH | not soluble
